Legend:
[1] = target: T1, human CD33-His (extracellular domain Asp 18-His 259) (human, UniProt P20138 18-259); test: ELISA on coated human CD33-his
T1 construct: range 18-259; bought protein; also called hCD33-his; human CD33 protein; not shown: His tag
Method: In order to assay the binding activity of VHH-Fc to human CD33 protein, a human CD33-his protein (purchased from ACROBiosystems, Cat. No. CD3-H5226) was diluted with PBS to make a final concentration of 2 μg/mL, and then added into a 96-well ELISA plate at 100 μL/well. The plate was sealed with a plastic film and incubated at 4° C. overnight, washed twice with PBS the next day, and a blocking solution [PBS+2% (w/w) BSA] was added for blocking at room temperature for 2 h. The blocking solution was discarded, and VHH-Fc antibody or negative control antibody serially diluted from 100 nM was added at 50 μL/well. After incubation at 37° C. for 2 h, the plate was washed 3 times with PBS. A secondary antibody labeled with HRP (horseradish peroxidase) (purchased from Sigma, Cat. No. A0170) was added. After incubation for 1 h at 37° C., the plate was washed 5 times with PBS. A TMB substrate was added at 50 μL/well. After incubation at room temperature for 10 min, a stop solution (1.0 N HCl) was added at 50 μL/well. The OD450 nm values were read on an ELISA plate reader (Multimode Plate Reader, EnSight, purchased from Perkin Elmer). The assay results for the binding of the VHH-Fc to hCD33-his by ELISA are shown in FIGS. 7A and 7B and Tables 11 and 12. […] The IgG control was hIgG1, and the data in the table are OD450 nm values. […]

monkey CD33-His protein = target: T2, monkey CD33-His protein (monkey); test: ELISA on coated monkey CD33-his
T2 construct: also called monkey CD33 protein

[2] = target: T1, human CD33-His (extracellular domain …); test: competitive ELISA vs coated S006-NB146-17 2ug/mL; soluble 25ug/ml
Method: (§1) VHH antibodies and control antibodies with known epitopes were subjected to epitope classification with competitive ELISA. ELISA plates were coated with 2 μg/mL antibodies according to the method in Example 5.1; the human CD33-his protein was subjected to a gradient dilution from 30 μg/mL, and EC80 values (Tables 26-27) were calculated. ELISA plates were coated with 2 μg/mL antibodies; after 25 µg/mL of antibodies to be tested were added, a human CD33-his protein having an EC80 concentration corresponding to each of the antibodies to be tested was then added for incubation for 2 h. The plates were washed 5 times with PBS, then HRP-labeled anti-His antibodies (purchased from GenScript, Cat. No. A00612) were added for incubation for 1 h, and the plates were washed 5 times. A TMB substrate was added at 50 μL/well and incubated at room temperature for 10 min, then a stop solution (1.0 M HCl) was added at 50 μL/well. OD_{450 nm} values were read using an ELISA plate reader (Insight, purchased from PerkinElmer), and the competition rate between the antibodies was calculated according to the OD_{450 nm} values using a formula. The results are shown in FIGS. 12A-12B, the higher the value of the competition rate, the closer the epitopes to which two antibodies bind.

[3] = target: T1, human CD33-His (extracellular domain …); test: competitive ELISA vs coated S006-NB147-225 2ug/mL; soluble 25ug/ml
Method: as §1

[4] = target: T1, human CD33-His (extracellular domain …); test: competitive ELISA vs coated S006-NB146-150 3ug/mL; soluble 25ug/ml
human CD33-his protein [5] = target: T3, human CD33-his protein (human, UniProt P20138 18-259); test: competition ELISA, coated human CD33-his, vs Biotin-C33B904 at EC80; antibody 62.50 nM
T3 construct: range 18-259; bought protein; also called hCD33-his; recombinant human CD33-his; not shown: His tag
T3 sequence (P20138 18-259 limits assumed): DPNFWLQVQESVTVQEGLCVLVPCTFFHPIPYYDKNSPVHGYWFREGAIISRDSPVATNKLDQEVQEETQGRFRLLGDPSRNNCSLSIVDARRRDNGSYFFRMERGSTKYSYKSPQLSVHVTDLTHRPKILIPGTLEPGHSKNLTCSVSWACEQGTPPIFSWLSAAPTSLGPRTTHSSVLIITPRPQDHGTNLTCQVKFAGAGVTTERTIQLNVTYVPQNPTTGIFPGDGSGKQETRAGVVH
Method: The plate was sealed with a plastic film and incubated at 4° C. overnight, washed twice with PBS the next day, and a blocking solution [PBS+2% (w/w) BSA] was added for blocking at room temperature for 2 h. The blocking solution was discarded, and VHH-Fc antibody or negative control antibody serially diluted from 100 nM was added at 50 μL/well. After incubation at 37° C. for 2 h, the plate was washed 3 times with PBS. A secondary antibody labeled with HRP (horseradish peroxidase) (purchased from Sigma, Cat. No. A0170) was added. After incubation for 1 h at 37° C., the plate was washed 5 times with PBS. A TMB substrate was added at 50 μL/well. After incubation at room temperature for 10 min, a stop solution (1.0 N HCl) was added at 50 μL/well. The OD450 nm values were read on an ELISA plate reader (Multimode Plate Reader, EnSight, purchased from Perkin Elmer). The assay results for the binding of the VHH-Fc to hCD33-his by ELISA are shown in FIGS. 7A and 7B and Tables 11 and 12. […] The IgG control was hIgG1, and the data in the table are OD450 nm values.
ELISA plates were coated with 2 μg/mL human CD33-his protein according to the method in Example 5.1; the Biotin-C331B904 antibody was subjected to a gradient dilution from 15 μg/mL, and EC80 values (0.18 μg/mL) were calculated. […] OD_{450 nm} values were read using an ELISA plate reader (Insight, purchased from PerkinElmer). […]

human CD33-his protein [6] = target: T3, human CD33-his protein; test: competition ELISA, coated human CD33-his, vs Biotin-C33B904 at EC80; antibody 0 nM (no competitor)
Method: ELISA plates were coated with 2 μg/mL human CD33-his protein according to the method in Example 5.1; the Biotin-C331B904 antibody was subjected to a gradient dilution from 15 μg/mL, and EC80 values (0.18 μg/mL) were calculated. ELISA plates were coated with 2 μg/mL human CD33-his protein; starting from 40 μg/mL, the VHH antibodies to be tested were diluted in a 1:2 dilution ratio to obtain seven concentrations and added to the ELISA plates, and then Biotin-C331904 antibodies with the EC80 concentrations were added for incubation for 2 h. The plates were washed 5 times with PBS and then […] (purchased from Sigma, Cat. No. S2438) were added for incubation for 1 h, and the plates were washed 5 times. A TMB substrate was added at 50 μL/well and incubated at room temperature for 10 min, then a stop solution (1.0 M HCl) was added at 50 μL/well. OD_{450 nm} values were read using an ELISA plate reader (Insight, purchased from PerkinElmer). Then, analysis was performed by software (GraphPad Prism8), and data were fitted for curve plotting. The results are shown in FIGS. 13A-13B and Tables 28 and 29.

T1 sequence (P20138 18-259 limits assumed): as above

| EC50 (read off the curve) [1] | EC50 (read off the curve) (monkey CD33-His protein) | inhibition rate [2] | inhibition rate [3] | inhibition rate [4] | OD450 (Biotin-C33B904 signal) (human CD33-his protein [5]) | OD450 (Biotin-C33B904 signal) (human CD33-his protein [6]) | Binder |
| --- | --- | --- | --- | --- | --- | --- | --- |
| ~0.3 nM | ~0.1 nM | 1% | 96% | 100% |  |  | C33B904 hIgG1 (antibody, V domains shown, intact human IgG1; variable regions from US20190382481A1; also called C33B3904; C331B904) VH: EVQLVESGGGLVQPGRSLRLSCAASGFTFDDYAMHWVRQAPGKGLEWVSGIGWSGGSIVYADSVKGRFTISRDNAKNSLYLQMNSLRAEDTALYYCAKDSPYGDFFDYWGQGTLVTVSS VL: DIVMTQSPDSLAVSLGERATINCKSSQTVFYSSNNKNYLAWYQQKPGQPPKLLISWASTRKSGVPDRFSGSGSGTDFTLTVSSLQAEDVAVYYCQHYYSTPYTFGQGTKLEIKR |
|  |  |  |  |  | 0.24 | 2.33 | C33B904 (antibody, human IgG1, kappa, V domains shown, control antibody, intact human IgG1 form; variable regions from US20190382481A1; also called C33B904 hIgG1; C331B904) VH: EVQLVESGGGLVQPGRSLRLSCAASGFTFDDYAMHWVRQAPGKGLEWVSGIGWSGGSIVYADSVKGRFTISRDNAKNSLYLQMNSLRAEDTALYYCAKDSPYGDFFDYWGQGTLVTVSS VL: DIVMTQSPDSLAVSLGERATINCKSSQTVFYSSNNKNYLAWYQQKPGQPPKLLISWASTRKSGVPDRFSGSGSGTDFTLTVSSLQAEDVAVYYCQHYYSTPYTFGQGTKLEIKR |

From patent US20240124575A1 (SIMCERE ZAIMING PHARMACEUTICAL, published 2024)
